Patent US11351270B2, “Junctophilin-2 fragments and uses therefor” (University of Iowa Research Foundation, priority 2016, dated 2022)

How the values were obtained:
[1] = tested on: MEF2C-mediated transcriptional activity; assay: MEF2 luciferase reporter assay; type: cell-based; conditions: 293 cells co-transfected with MEF2C and PMEF2-firefly, relative to PSV40-Renilla
Description: Firefly and Renilla reporter plasmids and JP2NT variants were co-transfected into HEK293 cells. The protein of the cells was harvested 48 hours after transfection. Promega dual luciferase system was used to evaluate the luciferase activity.
To examine whether JP2NT regulates MEF2-mediated transcription, a luciferase reporter system with firefly cDNA driven by the desmin enhancer-derived MEF2 binding site (PMEF2-firefly) (Naya et al., 1999) was used.

[2] = tested on: chromatin; assay: Biochemical fractionation for chromatin association; type: cell-based; conditions: MNASE digestion, Western blot
Excerpt: FIGS. 10A-D. JP2NT contains a NLS and a chromatin/DNA-binding domain. A-B) A conserved NLS in JP2 N-terminus is essential for nuclear accumulation of JP2NT. a-c, Subcellular localization of eGFP and eGFP-fused JP2 and eGFP-JP2NT in 293T cells. Full length JP2 localizes on both plasma membrane and ER network (b). […] C-D) JP2NT associates with chromatin. a, Schematic of the subcellular fractionation approach (adapted from Wisoka et al 2001). b, Subnuclear distribution of JP2NT and fragments/mutants. JP2NT is present in both soluble nuclear (S3) and chromatin fractions (S4). Deletion of the MORN domains (JP2NT JP2NT^ΔMORNs) had no effect on subnuclear distribution of JP2NT. However, the amount of chromatin-associated JP2NT was decreased by deletion of the bNLS alone (JP2NT^ΔMORNs/ΔbNLS), deletion of the ARR alone (JP2 JP2NT^ΔMORNs/ΔARR), or deletion of both the bNLS and ARR (JP2^ΔMORNs/ΔbNLS/ΔARR and JP2NT^ΔbNLS/ΔARR). Histone H3: chromatin marker.
Ultracentrifuge based protein fractionation was performed following the protocol described previously (van Berlo et al., 2013). For some experiments, the soluble nuclear fraction (Nu-S) was separately extracted using nuclear extraction buffer (NEB) from the Tissue subcellular fractionation kit of Thermo Scientific, and the remaining insoluble fraction was subjected to MNASE digestion for chromatin fraction extraction. […]

[3] = tested on: HEK293T cells; assay: Subcellular localization by confocal imaging; type: cell-based; conditions: HEK293T cells and cardiomyocytes
Description: Immunofluorescence was done as described previously (Guo et al., 2015). A Zeiss confocal microscope LSM510 was used for recording cell images.
To Investigate the molecular mechanism of JP2NT nuclear importation, an in silico analysis (Sigrist et al., 2002) was performed. […] These domains are evolutionarily conserved among species (FIGS. 18B-C). […] Indicating this NLS is Indispensable for nuclear localization of JP2NT. A fusion protein containing mCherry and the bNLS peptide with the ARR was imported into nuclei (FIG. 16D).

[4] = tested on: genomic DNA; assay: ChIP-seq of JP2NT-OE hearts; type: binding, mouse; conditions: anti-HA ChIP-seq
Description: ChIP-seq from transgenic myocardium was performed using the antibody against HA-tag, which pulls down the HA-tagged JP2NT. Sequencing libraries were prepared for the pulled-down DNA and input DNA (randomly fragmented genomic DNA), and then were subjected to Illumina sequencing (NextSeq 500 platform, 75 bp single end reads). The quality of sequencing reads was evaluated by FastQC (version 0.11.3) software (http://www.bioinformatics.babraham.ac.uk/projects/fastqc/) and the sequencing adaptor was trimmed by Cutadapt (version 1.8.1) software (Martin, 2011). Processed sequencing reads were aligned to mouse genome (mm10) by Bowtie 2 (version 2.2.5) software (Langmead et al., 2012) with the “-end-to-end” mode. MACS (version 1.4.2) software […] was used to call enriched peaks (the cutoff of significance was p value<1e-10). Homer (version 4.8.3) software (Heinz et al., 2010) was used to analyze the enriched genomic features of peaks, identify the target genes, and search the binding motifs.

[5] = tested on: cardiac hypertrophy; assay: Angiotensin-induced cardiac hypertrophy in JP2NT OE mice; type: in vivo, mouse
Description: A transgenic mouse line with cardiac specific overexpression of an exogenous protein sequence corresponding to JP2NT was prepared. JP2NT (JP2(1-565)) transgenic mice were generated based on a tet-off system. The Flag and HA tagged JP2NT cDNA was cloned downstream of tet-operated alpha-MHC promoter, enabling the cardiac specific and conditional expression of JP2NT (FIG. 9A). The plasmid (αMHC-JP2NT) was delivered by pronuclear injection into fertilized eggs to make transgenic founders. The transgenic mouse lines were backcrossed to C57 background for 9 generations. αMHC-JP2NT mice have been crossed with αMHC-tTA mice to generate double transgenic αMHC-tTA-JP2NT mice (noted as JP2NT OE mice). This allows for inducible and cardiac-specific expression of JP2NT, in which tTA binds to tet-operon and activates transcription of JP2NT. Thus, the expression and nuclear localization of JP2NT in transgenic mice have been confirmed.

B1: JP2NT: shorter form of Junctophilin-2 including the first 565 amino acids of N-terminus of JP2 (protein, UniProt Q9BR39 1-565, looked up, fragment)
chain: MSGGRFDFDDGGAYCGGWEGGKAHGHGLCTGPKGQGEYSGSWNFGFEVAGVYTWPSGNTFEGYWSQGKRHGLGIETKGRWLYKGEWTHGFKGRYGIRQSSSSGAKYEGTWNNGLQDGYGTETYADGGTYQGQFTNGMRHGYGVRQSVPYGMAVVVRSPLRTSLSSLRSEHSNGTVAPDSPASPASDGPALPSPAIPRGGFALSLLANAEAAARAPKGGGLFQRGALLGKLRRAESRTSVGSQRSRVSFLKSDLSSGASDAASTASLGEAAEGADEAAPFEADIDATTTETYMGEWKNDKRSGFGVSERSSGLRYEGEWLDNLRHGYGCTTLPDGHREEGKYRHNVLVKDTKRRMLQLKSNKVRQKVEHSVEGAQRAAAIARQKAEIAASRTSHAKAKAEAAEQAALAANQESNIARTLARELAPDFYQPGPEYQKRRLLQEILENSESLLEPPDRGAGAAGLPQPPRESPQLHERETPRPEGGSPSPAGTPPQPKRPRPGVSKDGLLSPGAWNGEPSGEGSRSVTPSEGAGRRSPARPATERMAIEALQAPPAPSREPEVALYQG
modifications: GST or adenoviral forms
notes: shorter form of Junctophilin-2 including the first 565 amino acids of N-terminus of JP2
MEF2-responsive luciferase signal [1]: attenuated the MEF2-responsive signal in a dose-dependent manner
association with chromatin (insoluble nuclear fraction) [2]: detected in both soluble (S3) and chromatin containing insoluble (P4) nuclear fractions
nuclear localization / nuclear importation [3]: highly enriched in nuclei
JP2NT-binding genomic DNA regions (p<10^−10) [4]: 18,242
genes encompassed by JP2NT-binding regions [4]: 10,587 genes
Angiotensin-li induced cardiac hypertrophy [5]: resistant
